Data from US20220098323A1 (US Dept. of Health and Human Services, published 2022).
Positions count from the first letter of the chain named.

T1: human glypican-1 (GPC1) (human, UniProt P35052 24-530)
T1 construct: also called human GPC1; HuGPC1
T1 sequence (looked up): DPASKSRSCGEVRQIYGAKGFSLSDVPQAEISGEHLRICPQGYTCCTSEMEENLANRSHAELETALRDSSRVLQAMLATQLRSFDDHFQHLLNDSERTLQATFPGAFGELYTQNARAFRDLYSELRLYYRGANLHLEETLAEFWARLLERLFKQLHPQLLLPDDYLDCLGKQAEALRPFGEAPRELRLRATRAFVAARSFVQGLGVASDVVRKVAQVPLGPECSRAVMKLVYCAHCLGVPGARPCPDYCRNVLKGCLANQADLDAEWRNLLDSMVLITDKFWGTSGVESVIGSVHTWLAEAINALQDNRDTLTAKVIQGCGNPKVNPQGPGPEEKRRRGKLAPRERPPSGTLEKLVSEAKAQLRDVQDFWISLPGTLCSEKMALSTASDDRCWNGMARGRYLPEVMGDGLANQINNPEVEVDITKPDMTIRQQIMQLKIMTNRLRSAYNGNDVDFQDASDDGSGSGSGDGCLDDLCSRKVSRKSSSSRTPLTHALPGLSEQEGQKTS

T2: human GPC5 (printed as 'GPCS') (human, UniProt P78333 25-554, limits assumed)
T2 construct: The text prints 'GPCS'
T2 sequence (looked up): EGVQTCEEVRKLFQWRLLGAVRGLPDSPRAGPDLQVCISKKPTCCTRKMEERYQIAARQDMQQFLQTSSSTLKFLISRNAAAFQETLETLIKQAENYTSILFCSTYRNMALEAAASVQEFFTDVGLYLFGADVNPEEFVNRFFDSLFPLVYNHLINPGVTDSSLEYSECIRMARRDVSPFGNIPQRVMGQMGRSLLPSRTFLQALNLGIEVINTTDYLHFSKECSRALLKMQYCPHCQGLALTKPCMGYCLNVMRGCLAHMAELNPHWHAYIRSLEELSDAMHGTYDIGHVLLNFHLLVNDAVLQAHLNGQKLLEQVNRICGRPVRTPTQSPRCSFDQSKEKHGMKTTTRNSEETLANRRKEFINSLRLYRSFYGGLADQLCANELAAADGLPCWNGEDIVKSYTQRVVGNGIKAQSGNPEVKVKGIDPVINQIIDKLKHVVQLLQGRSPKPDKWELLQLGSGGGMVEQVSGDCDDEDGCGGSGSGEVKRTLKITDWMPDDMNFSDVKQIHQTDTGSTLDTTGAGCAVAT

T3: human GPC6 (human, UniProt Q9Y625 24-529, limits assumed)
T3 sequence (looked up): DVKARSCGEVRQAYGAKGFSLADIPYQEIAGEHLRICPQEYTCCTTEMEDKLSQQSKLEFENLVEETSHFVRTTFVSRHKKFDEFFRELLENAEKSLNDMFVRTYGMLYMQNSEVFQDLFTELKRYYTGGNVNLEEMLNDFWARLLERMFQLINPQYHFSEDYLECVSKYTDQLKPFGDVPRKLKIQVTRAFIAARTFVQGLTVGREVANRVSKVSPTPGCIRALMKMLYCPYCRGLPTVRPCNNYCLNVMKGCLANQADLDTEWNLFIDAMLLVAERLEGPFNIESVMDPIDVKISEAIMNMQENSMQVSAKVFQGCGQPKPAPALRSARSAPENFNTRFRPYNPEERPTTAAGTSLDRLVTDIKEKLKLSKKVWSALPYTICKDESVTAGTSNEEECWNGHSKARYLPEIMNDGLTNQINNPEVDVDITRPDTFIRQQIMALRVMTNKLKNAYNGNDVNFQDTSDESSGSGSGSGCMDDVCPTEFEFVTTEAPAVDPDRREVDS

T4: human GPC2 (human, UniProt Q8N158 24-554, limits assumed)
T4 sequence (looked up): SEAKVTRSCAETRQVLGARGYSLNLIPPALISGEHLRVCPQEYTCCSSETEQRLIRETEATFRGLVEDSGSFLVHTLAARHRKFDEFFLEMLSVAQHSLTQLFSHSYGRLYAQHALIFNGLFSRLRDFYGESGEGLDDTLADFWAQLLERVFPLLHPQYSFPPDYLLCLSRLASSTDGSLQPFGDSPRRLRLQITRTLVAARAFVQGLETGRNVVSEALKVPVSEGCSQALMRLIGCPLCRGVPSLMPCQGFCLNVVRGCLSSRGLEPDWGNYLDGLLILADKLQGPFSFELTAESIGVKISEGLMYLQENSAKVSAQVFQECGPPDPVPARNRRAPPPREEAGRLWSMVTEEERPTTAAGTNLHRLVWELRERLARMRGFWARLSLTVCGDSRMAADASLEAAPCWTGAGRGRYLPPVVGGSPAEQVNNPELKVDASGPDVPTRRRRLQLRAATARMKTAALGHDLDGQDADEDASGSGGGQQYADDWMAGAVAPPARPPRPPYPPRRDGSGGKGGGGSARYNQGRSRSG

T5: mouse GPC1 (mouse, UniProt Q9QZF2 24-529, limits assumed)
T5 construct: also called MsGPC1
T5 sequence (looked up): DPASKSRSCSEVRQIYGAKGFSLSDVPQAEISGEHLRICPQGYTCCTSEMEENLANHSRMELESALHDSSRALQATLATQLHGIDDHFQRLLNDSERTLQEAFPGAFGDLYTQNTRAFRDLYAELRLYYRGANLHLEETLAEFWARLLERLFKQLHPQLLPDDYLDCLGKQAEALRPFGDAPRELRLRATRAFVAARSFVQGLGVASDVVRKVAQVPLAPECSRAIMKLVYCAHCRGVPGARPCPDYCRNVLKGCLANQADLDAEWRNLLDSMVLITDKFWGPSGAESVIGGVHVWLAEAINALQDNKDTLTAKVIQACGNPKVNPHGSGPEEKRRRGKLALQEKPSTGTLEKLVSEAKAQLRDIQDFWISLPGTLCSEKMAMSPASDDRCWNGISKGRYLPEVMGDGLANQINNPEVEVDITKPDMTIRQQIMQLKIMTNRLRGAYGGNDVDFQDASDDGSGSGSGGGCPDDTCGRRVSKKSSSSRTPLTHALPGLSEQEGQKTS

T6: cell-surface GPC1 on GPC1-expressing tumor cells (2B9 KLM, H8, T3M4) (UniProt P35052 24-530, limits assumed)
T6 sequence (looked up): T1 sequence (looked up)

B1: HM2-LR immunotoxin (other)
chain: MEVQLQQSGAELVRPGASVKLSCTASGFNIKDDYMHWVKQRPEQGLEWIGWIDPENGDTEYASKFQGKATITADTSSNTAYLQLSSLTSEDTAVYYCTRSSVGYWGQGTTLTVSSGGGGSGGGGSGGGGSDVVMTQTPLSLPVSLGDQASISCRSSQSLVHSNGNTYLHWYLQKPGQSPKLLIYKVSNRFSGVPDRFSGSGSGTYFTLKISRVEAEDLGVYFCSQRTHVPYTFGGGTKLEIKKLKASGGRHRQPRGWEQLGGGGGSPTGAEFLGDGGDVSFSTRGTQNWTVERLLQAHRQLEERGYVFVGYHGTFLEAAQSIVFGGVRARSQDLDAIWRGFYIAGDPALAYGYAQDQEPDARGRIRNGALLRVYVPRSSLPGFYRTSLTLAAPEAAGEVERLIGHPLPLRLDAITGPEEEGGRLETILGWPLAERTVVIPSAIPTDPRNVGGDLDPSSIPDKEQAISALPDYASQPGKPPREDLK
B2: mouse monoclonal antibody HM2 (antibody, V domains shown)
VH: EVQLQQSGAELVRPGASVKLSCTASGFNIKDDYMHWVKQRPEQGLEWIGWIDPENGDTEYASKFQGKATITADTSSNTAYLQLSSLTSEDTAVYYCTRSSVGYWGQGTTLTVSS
VL: DVVMTQTPLSLPVSLGDQASISCRSSQSLVHSNGNTYLHWYLQKPGQSPKLLIYKVSNRFSGVPDRFSGSGSGTYFTLKISRVEAEDLGVYFCSQRTHVPYTFGGGTKLEIK
notes: Mouse hybridoma antibody; also called HM2 antibody; HM2 anti-GPC1 monoclonal antibody
B3: camel single-domain antibody D4 (VHH)
VHH: QVQLVESGGGLVQPGGSLRLSCVASGYSYSIGYMAWFRQAPGKERAWVASRYTGDGGAVFDDAVKGRFTTSQESAGNTFDLQMDSLKPEDTAMYYCAAKGPGFGRWEYWGRGTQVTVSS
notes: also called D4 antibody; VHH antibody D4
B4: D4-AAA-D4-LR immunotoxin (other)
chain: MQVQLVESGGGLVQPGGSLRLSCVASGYSYSIGYMAWFRQAPGKERAWVASRYTGDGGAVFDDAVKGRFTTSQESAGNTFDLQMDSLKPEDTAMYYCAAKGPGFGRWEYWGRGTQVTVSSAAAQVQLVESGGGLVQPGGSLRLSCVASGYSYSIGYMAWFRQAPGKERAWVASRYTGDGGAVFDDAVKGRFTTSQESAGNTFDLQMDSLKPEDTAMYYCAAKGPGFGRWEYWGRGTQVTVSSKLKASGGRHRQPRGWEQLGGGGGSPTGAEFLGDGGDVSFSTRGTQNWTVERLLQAHRQLEERGYVFVGYHGTFLEAAQSIVFGGVRARSQDLDAIWRGFYIAGDPALAYGYAQDQEPDARGRIRNGALLRVYVPRSSLPGFYRTSLTLAAPEAAGEVERLIGHPLPLRLDAITGPEEEGGRLETILGWPLAERTVVIPSAIPTDPRNVGGDLDPSSIPDKEQAISALPDYASQPGKPPREDLK
notes: also called bivalent D4 immunotoxin; D4-D4-LR
B5: D4-GGS-D4-LR immunotoxin (other)
chain: B4 chain with A121G, A122G, A123S
notes: as for B4
B6: D4-LR immunotoxin (other)
chain: MQVQLVESGGGLVQPGGSLRLSCVASGYSYSIGYMAWFRQAPGKERAWVASRYTGDGGAVFDDAVKGRFTTSQESAGNTFDLQMDSLKPEDTAMYYCAAKGPGFGRWEYWGRGTQVTVSSKLKASGGRHRQPRGWEQLGGGGGSPTGAEFLGDGGDVSFSTRGTQNWTVERLLQAHRQLEERGYVFVGYHGTFLEAAQSIVFGGVRARSQDLDAIWRGFYIAGDPALAYGYAQDQEPDARGRIRNGALLRVYVPRSSLPGFYRTSLTLAAPEAAGEVERLIGHPLPLRLDAITGPEEEGGRLETILGWPLAERTVVIPSAIPTDPRNVGGDLDPSSIPDKEQAISALPDYASQPGKPPREDLK

Columns and labels:
human glypican-1 (GPC1) [1] = biological target: T1, human glypican-1 (GPC1); experiment: Octet kinetic analysis (column Kdis)
human glypican-1 (GPC1) [2] = biological target: T1, human glypican-1 (GPC1); experiment: Octet kinetic analysis
human glypican-1 (GPC1) [3] = biological target: T1, human glypican-1 (GPC1); experiment: Octet analysis
[4] = biological target: T2, human GPC5 (printed as 'GPCS'); experiment: ELISA
human GPC3 [5] = biological target: T7, human GPC3 (human, UniProt P51654 25-559, limits assumed); experiment: ELISA
T7 sequence (P51654 25-559 limits assumed): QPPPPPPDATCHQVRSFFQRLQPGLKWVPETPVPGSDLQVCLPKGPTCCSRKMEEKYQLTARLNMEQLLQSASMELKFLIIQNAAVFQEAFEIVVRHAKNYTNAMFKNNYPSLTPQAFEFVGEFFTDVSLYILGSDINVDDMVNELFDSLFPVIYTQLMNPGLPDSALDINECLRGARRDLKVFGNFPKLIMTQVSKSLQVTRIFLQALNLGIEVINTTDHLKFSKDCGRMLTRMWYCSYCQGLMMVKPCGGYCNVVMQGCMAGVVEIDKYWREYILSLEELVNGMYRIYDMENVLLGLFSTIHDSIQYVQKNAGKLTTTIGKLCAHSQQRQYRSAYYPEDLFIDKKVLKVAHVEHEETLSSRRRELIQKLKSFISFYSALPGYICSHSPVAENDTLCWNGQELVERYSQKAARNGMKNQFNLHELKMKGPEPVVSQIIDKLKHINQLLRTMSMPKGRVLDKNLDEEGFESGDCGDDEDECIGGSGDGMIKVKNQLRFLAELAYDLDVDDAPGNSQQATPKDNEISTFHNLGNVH

human GPC6 [6] = biological target: T3, human GPC6; experiment: ELISA
human GPC2 [7] = biological target: T4, human GPC2; experiment: ELISA
human glypican-1 (GPC1) [8] = biological target: T1, human glypican-1 (GPC1); experiment: Octet kinetic analysis; remark: listed apart in the source
[9] = biological target: T2, human GPC5 (printed as 'GPCS'); experiment: monoclonal phage ELISA
human GPC3 [10] = biological target: T7, human GPC3; experiment: monoclonal phage ELISA
mouse GPC1 = biological target: T5, mouse GPC1; experiment: monoclonal phage ELISA
human GPC6 [11] = biological target: T3, human GPC6; experiment: monoclonal phage ELISA
human GPC2 [12] = biological target: T4, human GPC2; experiment: monoclonal phage ELISA
human glypican-1 (GPC1) [13] = biological target: T1, human glypican-1 (GPC1); experiment: Octet kinetic analysis; remark: listed apart in the source
human glypican-1 (GPC1) [14] = biological target: T1, human glypican-1 (GPC1); experiment: ELISA on GPC1, OD450 against concentration
[15] = biological target: T6, cell-surface GPC1 on GPC1-expressing …

Binder	koff (human glypican-1 (GPC1) [1]) [s⁻¹]	Kd (human glypican-1 (GPC1) [2]) [nM]	kon (human glypican-1 (GPC1) [2]) [M⁻¹ s⁻¹]	Kd (human glypican-1 (GPC1) [3]) [nM]	Kd (human glypican-1 (GPC1) [8]) [nM]	Kd (human glypican-1 (GPC1) [13]) [nM]	EC50 (human glypican-1 (GPC1) [14]) [nM]	EC50 [15] [nM]	also measured
B1	0.00206	6.94	297000	6.9					
B2					1.2				binding result [4]: no binding; binding result (human GPC3 [5]): no binding; binding result (human GPC6 [6]): no binding; binding result (human GPC2 [7]): no binding
B3					1.3				binding result [9]: no binding; binding result (human GPC3 [10]): no binding; binding result (mouse GPC1): binds; binding result (human GPC6 [11]): no binding; binding result (human GPC2 [12]): no binding
B4						0.09	0.2	1.9	
B5						0.08	0.1	3.8	
B6	0.00218	6.25	350000	6.3			4.3	8.1	
